According to US20200297818A1 (ZEALAND PHARMA A S, published 2020):
Residue numbers refer to the chain shown, from its start.

B1: Compound 7 (peptide)
peptide: HXEGTFSSELATILDGXAARDFIAWLIEHKITD
HELM: PEPTIDE1{H.[Aib].E.G.T.F.S.S.E.L.A.T.I.L.D.G.K.A.A.R.D.F.I.A.W.L.I.E.H.K.I.T.D}|PEPTIDE2{[O=C(O)CCCCCCCCCCCCCCCCC(=O)[*:2]].[gGlu]}$PEPTIDE1,PEPTIDE2,17:R3-2:R2$$$V2.0
SMILES: CC[C@H](C)[C@H](NC(=O)[C@H](Cc1ccccc1)NC(=O)[C@H](CC(=O)O)NC(=O)[C@H](CCCNC(=N)N)NC(=O)[C@H](C)NC(=O)[C@H](C)NC(=O)[C@H](CCCCNC(=O)CC[C@H](NC(=O)CCCCCCCCCCCCCCCCC(=O)O)C(=O)O)NC(=O)CNC(=O)[C@H](CC(=O)O)NC(=O)[C@H](CC(C)C)NC(=O)[C@@H](NC(=O)[C@@H](NC(=O)[C@H](C)NC(=O)[C@H](CC(C)C)NC(=O)[C@H](CCC(=O)O)NC(=O)[C@H](CO)NC(=O)[C@H](CO)NC(=O)[C@H](Cc1ccccc1)NC(=O)[C@@H](NC(=O)CNC(=O)[C@H](CCC(=O)O)NC(=O)C(C)(C)NC(=O)[C@@H](N)Cc1c[nH]cn1)[C@@H](C)O)[C@@H](C)O)[C@@H](C)CC)C(=O)N[C@@H](C)C(=O)N[C@@H](Cc1c[nH]c2ccccc12)C(=O)N[C@@H](CC(C)C)C(=O)N[C@H](C(=O)N[C@@H](CCC(=O)O)C(=O)N[C@@H](Cc1c[nH]cn1)C(=O)N[C@@H](CCCCN)C(=O)N[C@H](C(=O)N[C@H](C(=O)N[C@@H](CC(=O)O)C(=O)O)[C@@H](C)O)[C@@H](C)CC)[C@@H](C)CC
B2: Compound 10 (peptide)
peptide: B1 peptide with G16X, X17L
HELM: PEPTIDE1{H.[Aib].E.G.T.F.S.S.E.L.A.T.I.L.D.K.L.A.A.R.D.F.I.A.W.L.I.E.H.K.I.T.D}|PEPTIDE2{[O=C(O)CCCCCCCCCCCCCCCCC(=O)[*:2]].[gGlu]}$PEPTIDE1,PEPTIDE2,16:R3-2:R2$$$V2.0
SMILES: CC[C@H](C)[C@H](NC(=O)[C@H](Cc1ccccc1)NC(=O)[C@H](CC(=O)O)NC(=O)[C@H](CCCNC(=N)N)NC(=O)[C@H](C)NC(=O)[C@H](C)NC(=O)[C@H](CC(C)C)NC(=O)[C@H](CCCCNC(=O)CC[C@H](NC(=O)CCCCCCCCCCCCCCCCC(=O)O)C(=O)O)NC(=O)[C@H](CC(=O)O)NC(=O)[C@H](CC(C)C)NC(=O)[C@@H](NC(=O)[C@@H](NC(=O)[C@H](C)NC(=O)[C@H](CC(C)C)NC(=O)[C@H](CCC(=O)O)NC(=O)[C@H](CO)NC(=O)[C@H](CO)NC(=O)[C@H](Cc1ccccc1)NC(=O)[C@@H](NC(=O)CNC(=O)[C@H](CCC(=O)O)NC(=O)C(C)(C)NC(=O)[C@@H](N)Cc1c[nH]cn1)[C@@H](C)O)[C@@H](C)O)[C@@H](C)CC)C(=O)N[C@@H](C)C(=O)N[C@@H](Cc1c[nH]c2ccccc12)C(=O)N[C@@H](CC(C)C)C(=O)N[C@H](C(=O)N[C@@H](CCC(=O)O)C(=O)N[C@@H](Cc1c[nH]cn1)C(=O)N[C@@H](CCCCN)C(=O)N[C@H](C(=O)N[C@H](C(=O)N[C@@H](CC(=O)O)C(=O)O)[C@@H](C)O)[C@@H](C)CC)[C@@H](C)CC
B3: Compound 11 (peptide)
peptide: B1 peptide with T5S, S7T, G16X, X17L
HELM: PEPTIDE1{H.[Aib].E.G.S.F.T.S.E.L.A.T.I.L.D.K.L.A.A.R.D.F.I.A.W.L.I.E.H.K.I.T.D}|PEPTIDE2{[O=C(O)CCCCCCCCCCCCCCCCC(=O)[*:2]].[gGlu]}$PEPTIDE1,PEPTIDE2,16:R3-2:R2$$$V2.0
SMILES: CC[C@H](C)[C@H](NC(=O)[C@H](Cc1ccccc1)NC(=O)[C@H](CC(=O)O)NC(=O)[C@H](CCCNC(=N)N)NC(=O)[C@H](C)NC(=O)[C@H](C)NC(=O)[C@H](CC(C)C)NC(=O)[C@H](CCCCNC(=O)CC[C@H](NC(=O)CCCCCCCCCCCCCCCCC(=O)O)C(=O)O)NC(=O)[C@H](CC(=O)O)NC(=O)[C@H](CC(C)C)NC(=O)[C@@H](NC(=O)[C@@H](NC(=O)[C@H](C)NC(=O)[C@H](CC(C)C)NC(=O)[C@H](CCC(=O)O)NC(=O)[C@H](CO)NC(=O)[C@@H](NC(=O)[C@H](Cc1ccccc1)NC(=O)[C@H](CO)NC(=O)CNC(=O)[C@H](CCC(=O)O)NC(=O)C(C)(C)NC(=O)[C@@H](N)Cc1c[nH]cn1)[C@@H](C)O)[C@@H](C)O)[C@@H](C)CC)C(=O)N[C@@H](C)C(=O)N[C@@H](Cc1c[nH]c2ccccc12)C(=O)N[C@@H](CC(C)C)C(=O)N[C@H](C(=O)N[C@@H](CCC(=O)O)C(=O)N[C@@H](Cc1c[nH]cn1)C(=O)N[C@@H](CCCCN)C(=O)N[C@H](C(=O)N[C@H](C(=O)N[C@@H](CC(=O)O)C(=O)O)[C@@H](C)O)[C@@H](C)CC)[C@@H](C)CC
B4: Compound 12 (peptide)
peptide: B1 peptide with S7T, G16X, X17L
HELM: PEPTIDE1{H.[Aib].E.G.T.F.T.S.E.L.A.T.I.L.D.K.L.A.A.R.D.F.I.A.W.L.I.E.H.K.I.T.D}|PEPTIDE2{[O=C(O)CCCCCCCCCCCCCCCCC(=O)[*:2]].[gGlu]}$PEPTIDE1,PEPTIDE2,16:R3-2:R2$$$V2.0
SMILES: CC[C@H](C)[C@H](NC(=O)[C@H](Cc1ccccc1)NC(=O)[C@H](CC(=O)O)NC(=O)[C@H](CCCNC(=N)N)NC(=O)[C@H](C)NC(=O)[C@H](C)NC(=O)[C@H](CC(C)C)NC(=O)[C@H](CCCCNC(=O)CC[C@H](NC(=O)CCCCCCCCCCCCCCCCC(=O)O)C(=O)O)NC(=O)[C@H](CC(=O)O)NC(=O)[C@H](CC(C)C)NC(=O)[C@@H](NC(=O)[C@@H](NC(=O)[C@H](C)NC(=O)[C@H](CC(C)C)NC(=O)[C@H](CCC(=O)O)NC(=O)[C@H](CO)NC(=O)[C@@H](NC(=O)[C@H](Cc1ccccc1)NC(=O)[C@@H](NC(=O)CNC(=O)[C@H](CCC(=O)O)NC(=O)C(C)(C)NC(=O)[C@@H](N)Cc1c[nH]cn1)[C@@H](C)O)[C@@H](C)O)[C@@H](C)O)[C@@H](C)CC)C(=O)N[C@@H](C)C(=O)N[C@@H](Cc1c[nH]c2ccccc12)C(=O)N[C@@H](CC(C)C)C(=O)N[C@H](C(=O)N[C@@H](CCC(=O)O)C(=O)N[C@@H](Cc1c[nH]cn1)C(=O)N[C@@H](CCCCN)C(=O)N[C@H](C(=O)N[C@H](C(=O)N[C@@H](CC(=O)O)C(=O)O)[C@@H](C)O)[C@@H](C)CC)[C@@H](C)CC
B5: Compound 9 (peptide)
peptide: B1 peptide with S7T
HELM: PEPTIDE1{H.[Aib].E.G.T.F.T.S.E.L.A.T.I.L.D.G.K.A.A.R.D.F.I.A.W.L.I.E.H.K.I.T.D}|PEPTIDE2{[O=C(O)CCCCCCCCCCCCCCCCC(=O)[*:2]].[gGlu]}$PEPTIDE1,PEPTIDE2,17:R3-2:R2$$$V2.0
SMILES: CC[C@H](C)[C@H](NC(=O)[C@H](Cc1ccccc1)NC(=O)[C@H](CC(=O)O)NC(=O)[C@H](CCCNC(=N)N)NC(=O)[C@H](C)NC(=O)[C@H](C)NC(=O)[C@H](CCCCNC(=O)CC[C@H](NC(=O)CCCCCCCCCCCCCCCCC(=O)O)C(=O)O)NC(=O)CNC(=O)[C@H](CC(=O)O)NC(=O)[C@H](CC(C)C)NC(=O)[C@@H](NC(=O)[C@@H](NC(=O)[C@H](C)NC(=O)[C@H](CC(C)C)NC(=O)[C@H](CCC(=O)O)NC(=O)[C@H](CO)NC(=O)[C@@H](NC(=O)[C@H](Cc1ccccc1)NC(=O)[C@@H](NC(=O)CNC(=O)[C@H](CCC(=O)O)NC(=O)C(C)(C)NC(=O)[C@@H](N)Cc1c[nH]cn1)[C@@H](C)O)[C@@H](C)O)[C@@H](C)O)[C@@H](C)CC)C(=O)N[C@@H](C)C(=O)N[C@@H](Cc1c[nH]c2ccccc12)C(=O)N[C@@H](CC(C)C)C(=O)N[C@H](C(=O)N[C@@H](CCC(=O)O)C(=O)N[C@@H](Cc1c[nH]cn1)C(=O)N[C@@H](CCCCN)C(=O)N[C@H](C(=O)N[C@H](C(=O)N[C@@H](CC(=O)O)C(=O)O)[C@@H](C)O)[C@@H](C)CC)[C@@H](C)CC
B6: Compound 8 (peptide)
peptide: B1 peptide with T5S, S7T
HELM: PEPTIDE1{H.[Aib].E.G.S.F.T.S.E.L.A.T.I.L.D.G.K.A.A.R.D.F.I.A.W.L.I.E.H.K.I.T.D}|PEPTIDE2{[O=C(O)CCCCCCCCCCCCCCCCC(=O)[*:2]].[gGlu]}$PEPTIDE1,PEPTIDE2,17:R3-2:R2$$$V2.0
SMILES: CC[C@H](C)[C@H](NC(=O)[C@H](Cc1ccccc1)NC(=O)[C@H](CC(=O)O)NC(=O)[C@H](CCCNC(=N)N)NC(=O)[C@H](C)NC(=O)[C@H](C)NC(=O)[C@H](CCCCNC(=O)CC[C@H](NC(=O)CCCCCCCCCCCCCCCCC(=O)O)C(=O)O)NC(=O)CNC(=O)[C@H](CC(=O)O)NC(=O)[C@H](CC(C)C)NC(=O)[C@@H](NC(=O)[C@@H](NC(=O)[C@H](C)NC(=O)[C@H](CC(C)C)NC(=O)[C@H](CCC(=O)O)NC(=O)[C@H](CO)NC(=O)[C@@H](NC(=O)[C@H](Cc1ccccc1)NC(=O)[C@H](CO)NC(=O)CNC(=O)[C@H](CCC(=O)O)NC(=O)C(C)(C)NC(=O)[C@@H](N)Cc1c[nH]cn1)[C@@H](C)O)[C@@H](C)O)[C@@H](C)CC)C(=O)N[C@@H](C)C(=O)N[C@@H](Cc1c[nH]c2ccccc12)C(=O)N[C@@H](CC(C)C)C(=O)N[C@H](C(=O)N[C@@H](CCC(=O)O)C(=O)N[C@@H](Cc1c[nH]cn1)C(=O)N[C@@H](CCCCN)C(=O)N[C@H](C(=O)N[C@H](C(=O)N[C@@H](CC(=O)O)C(=O)O)[C@@H](C)O)[C@@H](C)CC)[C@@H](C)CC

These binders were tested against T1, human GLP-2 receptor (hGLP2-R) (human, UniProt O95838 1-553) (assay: cell-based or functional assay).
T1 sequence (looked up): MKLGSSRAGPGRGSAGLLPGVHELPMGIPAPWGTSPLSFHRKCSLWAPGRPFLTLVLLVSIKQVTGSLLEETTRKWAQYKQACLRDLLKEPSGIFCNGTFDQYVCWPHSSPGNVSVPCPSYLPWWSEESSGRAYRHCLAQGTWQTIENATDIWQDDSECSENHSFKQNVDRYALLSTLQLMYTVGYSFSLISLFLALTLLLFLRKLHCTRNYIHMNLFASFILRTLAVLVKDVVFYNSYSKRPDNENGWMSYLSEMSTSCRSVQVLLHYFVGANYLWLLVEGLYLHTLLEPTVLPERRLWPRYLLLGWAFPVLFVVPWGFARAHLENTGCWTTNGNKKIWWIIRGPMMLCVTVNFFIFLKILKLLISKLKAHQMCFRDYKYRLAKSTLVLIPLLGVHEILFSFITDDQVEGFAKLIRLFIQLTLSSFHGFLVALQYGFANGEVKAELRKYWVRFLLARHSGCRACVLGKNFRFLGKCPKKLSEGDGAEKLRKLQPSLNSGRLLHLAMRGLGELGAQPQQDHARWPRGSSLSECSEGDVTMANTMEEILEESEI

Binder	EC50 GLP-2 (nM); cAMP response [nM]
B1	0.019
B2	0.087
B3	0.085
B4	0.11
B5	0.056
B6	0.039

Each binder was assayed against human glucagon-like peptide 1 receptor (GLP-1 R) (human, UniProt P43220 24-463) (assay: cell-based or functional assay).

Binder	EC50 GLP-1 (nM); cAMP response [nM]
B1	0.92
B2	1.8
B3	0.32
B4	0.14
B5	0.056
B6	0.22
